Assay [1] deals with T1, rat calcitonin receptor (rat, UniProt P32214 25-516).
T1 construct: whole, on cells; Used as membranes prepared from BHK tk'ts 13 cells transiently transfected with the rat calcitonin receptor (Assay VIII); also called rCTR; rat calcitonin (a) receptor
T1 sequence (looked up): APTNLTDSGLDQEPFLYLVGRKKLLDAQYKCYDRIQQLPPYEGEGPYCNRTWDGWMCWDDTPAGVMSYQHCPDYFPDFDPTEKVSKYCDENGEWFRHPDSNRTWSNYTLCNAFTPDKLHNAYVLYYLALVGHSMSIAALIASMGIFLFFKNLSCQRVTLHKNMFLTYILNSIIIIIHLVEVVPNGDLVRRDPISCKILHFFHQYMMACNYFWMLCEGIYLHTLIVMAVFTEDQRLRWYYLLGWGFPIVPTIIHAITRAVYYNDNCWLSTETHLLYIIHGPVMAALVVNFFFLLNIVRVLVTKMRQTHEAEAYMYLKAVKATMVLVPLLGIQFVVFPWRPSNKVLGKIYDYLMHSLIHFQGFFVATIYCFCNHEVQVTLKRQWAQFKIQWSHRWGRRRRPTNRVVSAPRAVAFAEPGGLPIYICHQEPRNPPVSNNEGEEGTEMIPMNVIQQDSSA
In words: SPA competition with 125I-calcitonin, membranes of BHK cells with rat CTR (Assay VIII).

Assay [2] has as its target T2, human calcitonin receptor (human, UniProt P30988 25-474).
T2 construct: whole, on cells; Used as membranes prepared from a BHK tk'ts 13 cell line stably transfected with the human calcitonin receptor (Assay VII); also called hCTR; hCT
T2 sequence (looked up): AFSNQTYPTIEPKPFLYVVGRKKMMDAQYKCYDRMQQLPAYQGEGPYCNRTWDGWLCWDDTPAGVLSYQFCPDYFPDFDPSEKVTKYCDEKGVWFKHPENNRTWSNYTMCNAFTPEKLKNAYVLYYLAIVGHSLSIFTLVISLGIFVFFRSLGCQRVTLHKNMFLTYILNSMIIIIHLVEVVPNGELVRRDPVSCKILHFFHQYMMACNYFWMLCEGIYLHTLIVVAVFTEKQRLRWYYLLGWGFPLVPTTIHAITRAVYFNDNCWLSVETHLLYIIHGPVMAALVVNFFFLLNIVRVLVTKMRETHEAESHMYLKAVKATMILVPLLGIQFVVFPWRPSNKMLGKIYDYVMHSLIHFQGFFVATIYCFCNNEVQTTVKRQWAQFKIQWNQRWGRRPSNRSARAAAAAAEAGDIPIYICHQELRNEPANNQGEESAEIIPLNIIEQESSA
In words: IC50 on human CTR divided by IC50 on human amylin receptor (Assays VII/V). Put shortly: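 Membranes (35 ng/μL final) + SPA beads, 50 mM Hepes pH 7.4 buffer with 1 mM CaCl2, 5 mM MgCl₂, 0.1% OA, 0.02% Tween20; 120 min, 25° C, shaking; centrifuged, counted; IC₅₀ by one-site binding competition.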

Assay [3] concerns the target T1, rat calcitonin receptor. Nature of the assay: IC50 on rat CTR divided by IC50 on rat amylin receptor (Assays VIII/VI).
Assay [4] deals with T3, rat amylin receptor (rat calcitonin receptor + rat RAMP 3) (rat, UniProt P32214 25-516; Q9JJ73 23-147).
T3 construct: whole, on cells; Used as membranes prepared from BHK tk'ts 13 cells transiently transfected with rat calcitonin receptor and rat RAMP 3 (Assay VI); also called rAmylin-R; rat amylin 3(a) receptor
T3 sequence (looked up) 1: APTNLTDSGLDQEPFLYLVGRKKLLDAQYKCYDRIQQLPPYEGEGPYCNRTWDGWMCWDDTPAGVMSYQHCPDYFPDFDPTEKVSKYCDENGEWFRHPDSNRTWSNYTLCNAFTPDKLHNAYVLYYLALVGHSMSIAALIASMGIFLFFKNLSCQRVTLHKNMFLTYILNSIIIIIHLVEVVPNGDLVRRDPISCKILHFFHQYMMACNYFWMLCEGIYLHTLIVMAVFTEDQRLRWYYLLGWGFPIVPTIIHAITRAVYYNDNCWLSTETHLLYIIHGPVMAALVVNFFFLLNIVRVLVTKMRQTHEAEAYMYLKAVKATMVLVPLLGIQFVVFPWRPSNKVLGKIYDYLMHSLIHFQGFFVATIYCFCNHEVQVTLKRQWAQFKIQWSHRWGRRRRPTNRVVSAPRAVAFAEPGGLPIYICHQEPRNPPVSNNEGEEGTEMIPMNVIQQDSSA
T3 sequence (looked up) 2: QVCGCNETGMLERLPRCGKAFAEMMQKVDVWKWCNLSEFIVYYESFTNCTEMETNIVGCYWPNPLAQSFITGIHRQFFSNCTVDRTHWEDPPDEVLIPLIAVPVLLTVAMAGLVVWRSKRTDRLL
In words: SPA competition with 125I-rat amylin, membranes of BHK cells with rat CTR + rat RAMP3 (Assay VI).

Numbered stars: 1 amine (or outer) side, 2 acyl side, 3 side chain; on linkers, the order of the positions; unused ones are H or OH. Bridge positions count the residues as written; N and C are the ends. Side chains are listed from the residue outwards. Ends that are not written are not given here. * marks the point of attachment. C20 diacid = O=C(O)CCCCCCCCCCCCCCCCCCC(=O)*; γGlu = O=C(O)[C@H](CCC(=O)[*:2])N[*:1]; AEEA = NCCOCCOCC(=O)O

What is called IC50 is the concentration that inhibits the measured activity by half.

B1: N^ε1-[2-[2-[2-[[(4S)-4-carboxy-4-(19-carboxynonadecanoylamino)butanoyl]amino]ethoxy]ethoxy]acetyl]-[Arg17,Pro21,Pro27,Pro29,Pro34]-h-amylin (peptide)
peptide: K([AEEA-γGlu-C20 diacid])CNTATCATQRLANFLRHSSPNFGAIPSPTNVGPNTY-NH2
modifications: disulfide 2-7; N-terminus assumed
SMILES: CC[C@H](C)[C@H](NC(=O)[C@H](C)NC(=O)CNC(=O)[C@H](Cc1ccccc1)NC(=O)[C@H](CC(N)=O)NC(=O)[C@@H]1CCCN1C(=O)[C@H](CO)NC(=O)[C@H](CO)NC(=O)[C@H](Cc1c[nH]cn1)NC(=O)[C@H](CCCNC(=N)N)NC(=O)[C@H](CC(C)C)NC(=O)[C@H](Cc1ccccc1)NC(=O)[C@H](CC(N)=O)NC(=O)[C@H](C)NC(=O)[C@H](CC(C)C)NC(=O)[C@H](CCCNC(=N)N)NC(=O)[C@H](CCC(N)=O)NC(=O)[C@@H](NC(=O)[C@H](C)NC(=O)[C@@H]1CSSC[C@H](NC(=O)[C@@H](N)CCCCNC(=O)COCCOCCNC(=O)CC[C@H](NC(=O)CCCCCCCCCCCCCCCCCCC(=O)O)C(=O)O)C(=O)N[C@@H](CC(N)=O)C(=O)N[C@@H]([C@@H](C)O)C(=O)N[C@@H](C)C(=O)N[C@@H]([C@@H](C)O)C(=O)N1)[C@@H](C)O)C(=O)N1CCC[C@H]1C(=O)N[C@@H](CO)C(=O)N1CCC[C@H]1C(=O)N[C@H](C(=O)N[C@@H](CC(N)=O)C(=O)N[C@H](C(=O)NCC(=O)N1CCC[C@H]1C(=O)N[C@@H](CC(N)=O)C(=O)N[C@H](C(=O)N[C@@H](Cc1ccc(O)cc1)C(N)=O)[C@@H](C)O)C(C)C)[C@@H](C)O
notes: Analogue of human amylin; also called compound 56
Turning to B1, the IC50 came out at 5.26 nM in the assay with rat calcitonin receptor [1] and 0.04 nM in assay [4]. In assay [2], the “Ratio hCT/hAmylin binding” value is 42.6. The “Ratio rCT/rAmylin binding” value with rat calcitonin receptor [3] amounted to 131.

B2: N^ε1-[2-[2-[2-[[(4S)-4-carboxy-4-(19-carboxynonadecanoylamino)butanoyl]amino]ethoxy]ethoxy]acetyl]-[Arg17,Pro21,Pro27,Pro31,His35]-h-amylin (peptide)
peptide: K([AEEA-γGlu-C20 diacid])CNTATCATQRLANFLRHSSPNFGAIPSSTPVGSHTY-NH2
modifications: disulfide 2-7; N-terminus assumed
SMILES: CC[C@H](C)[C@H](NC(=O)[C@H](C)NC(=O)CNC(=O)[C@H](Cc1ccccc1)NC(=O)[C@H](CC(N)=O)NC(=O)[C@@H]1CCCN1C(=O)[C@H](CO)NC(=O)[C@H](CO)NC(=O)[C@H](Cc1c[nH]cn1)NC(=O)[C@H](CCCNC(=N)N)NC(=O)[C@H](CC(C)C)NC(=O)[C@H](Cc1ccccc1)NC(=O)[C@H](CC(N)=O)NC(=O)[C@H](C)NC(=O)[C@H](CC(C)C)NC(=O)[C@H](CCCNC(=N)N)NC(=O)[C@H](CCC(N)=O)NC(=O)[C@@H](NC(=O)[C@H](C)NC(=O)[C@@H]1CSSC[C@H](NC(=O)[C@@H](N)CCCCNC(=O)COCCOCCNC(=O)CC[C@H](NC(=O)CCCCCCCCCCCCCCCCCCC(=O)O)C(=O)O)C(=O)N[C@@H](CC(N)=O)C(=O)N[C@@H]([C@@H](C)O)C(=O)N[C@@H](C)C(=O)N[C@@H]([C@@H](C)O)C(=O)N1)[C@@H](C)O)C(=O)N1CCC[C@H]1C(=O)N[C@@H](CO)C(=O)N[C@@H](CO)C(=O)N[C@H](C(=O)N1CCC[C@H]1C(=O)N[C@H](C(=O)NCC(=O)N[C@@H](CO)C(=O)N[C@@H](Cc1c[nH]cn1)C(=O)N[C@H](C(=O)N[C@@H](Cc1ccc(O)cc1)C(N)=O)[C@@H](C)O)C(C)C)[C@@H](C)O
notes: Analogue of human amylin; also called compound 57
As for B2, the concentration for half-maximal inhibition (IC50) with rat calcitonin receptor [1] was 24.4 nM; in assay [4], 0.181 nM. Further, the “Ratio hCT/hAmylin binding” value in assay [2] amounted to 133. In addition, in the assay with rat calcitonin receptor [3], the “Ratio rCT/rAmylin binding” value amounted to 135.

Values taken from patent US20140087995A1 (published 2014).
